Here are results for four molecules from patent US20030139374A1 (University of Texas, published 2003).

For test [1], the system named is cancer patients having progressive disease. The conditions noted are these: human, in vivo; cited from earlier work.
For the next test, the system named is TNFα. The conditions noted are these: cited from earlier work.
Test [2] deals with IL-1α-stimulated bEnd.3 cells. Put plainly: Factor Xa formation by coaguligand on bEnd.3 cells, chromogenic assay. In kind it is cell-based, mouse. The conditions noted are these: 10 μg per ml. How it is done: The ability of Annexin V to affect Factor Xa formation induced by coaguligand was determined by a chromogenic assay. […] Annexin V was added at concentrations ranging from 0.1 to 10 μg/ml and cells were incubated for 30 min. before addition of diluted Proplex T. The amount of Factor Xa generated in the presence or absence of Annexin V was determined. Each treatment was performed in duplicate and repeated at least twice.

Another test has as its system L540 Hodgkin tumors. Put plainly: Annexin V inhibition of coaguligand-induced thrombosis in vivo. The arrangement: species or system SCID mice. The protocol:
The ability of Annexin V to inhibit coaguligand-induced thrombosis in vivo was examined in L540 Hodgkin-bearing SCID mice.
Four hours after the last injection mice were anesthetized and perfused with heparinized saline. Tumors were removed, fixed with 4% formalin, paraffin-embedded and stained with hematoxylene-eosin. The number of thrombosed and non-thrombosed blood vessels were counted and the percentage of thrombosis was calculated.

A further test deals with A20 lymphoma cells. As to the kind of experiment: In vitro coagulation assay on A20 cells with B21-2/10H10 capture antibody. In kind it is cell-based, mouse.
For test [3], the system named is C1300 Muγ mouse neuroblastoma. Put plainly: In vivo tumor thrombosis, C1300 Muγ. The arrangement: species or system BALB/c nu/nu mice. An excerpt:
(§1) Tumor test systems were of four types: i) 3LL mouse lung carcinoma growing subcutaneously in C57BL/6 mice; ii) C1300 mouse neuroblastoma growing subcutaneously in BALB/c nu/nu mice; iii) HT29 human colorectal carcinoma growing subcutaneously in BALB/c nu/nu mice; and iv) C1300 Muγ mouse neuroblastoma growing subcutaneously in BALB/c nu/nu mice. The C1300 Muγ tumor is an interferon-γ secreting transfectant derived from the C1300 tumor (Watanabe et al, 1989).
(§2) To establish tumors, 10^6 to 1.5×10^7 tumor cells were injected subcutaneously into the right anterior flank of the mice. When tumors had grown to various sizes, mice were randomly assigned to different study groups. […] Fab′, or bispecific antibody. Other mice received equivalent quantities IgG, Fab′ or bispecific antibody alone. The injections were performed slowly into one of the tail veins over approximately 45 seconds, usually followed by 200 μl of saline.
(§3) Twenty-four hours after being injected with tTF or immunoglobulin-tTF conjugates, the mice were anesthetized with metophane and were exsanguinated by perfusion with heparinized saline. Tumors and normal tissues were excised and immediately fixed in 3% (v/v) formalin. Paraffin sections were cut and stained with hematoxylin and eosin. Blood vessels having open lumens containing erythrocytes and blood vessels containing thrombi were counted. […]

Test [4] has as its system C1300 mouse neuroblastoma. Put plainly: In vivo tumor thrombosis, C1300. Set-up: species or system BALB/c nu/nu mice. The conditions noted are these: large tumors (>1000 mm^3); 24 hours after injection.
From the text: as §1, §2, §3

Another test deals with 3LL mouse lung carcinoma. As to the kind of experiment: In vivo tumor thrombosis, 3LL. Set-up: species or system C57BL/6 mice. The conditions noted are these: large (>800 mm^3) tumors.
From the text: as §1, §2, §3

The next test concerns C1300 Muγ tumors. As to the kind of experiment: Anti-tumor effects (tumor growth), C1300 Muγ. The conditions noted are these: 300 mm^3 at start. Type of test: in vivo, nu/nu mice. How it is done: The tumor test systems were: i) L540 human Hodgkin's disease tumors growing in SCID mice; ii) C1300 Muγ (interferon-secreting) neuroblastoma growing in nu/nu mice; iii) H460 human non-small cell lung carcinoma growing in nu/nu mice. To establish solid tumors, 1.5×10^7 tumor cells were injected subcutaneously into the right anterior flank of SCID or BALB/c nu/nu mice (Charles River Labs., Wilmingham, Mass.). When the tumors had grown to various diameters, mice were assigned to different experimental groups, each containing 4 to 9 mice.
Other mice received equivalent quantities of bispecific antibody alone. The injections were performed over ˜45 seconds into one of the tail veins, followed by 200 μl of saline. The infusions were repeated six days later. Perpendicular tumor diameters were measured at regular intervals and tumor volumes were calculated.
Mice bearing small (300 mm^3) C1300 Muγ tumors were injected intravenously with 16-20 μg tTF219. The treatment was repeated one week later. […] One week after the second treatment with tTF219, tumors were 60% of the size of tumors in mice receiving diluent alone. The greater effectiveness of the second injection probably derives from the greater thrombotic action of tTF219 on vessels in large tumors, observed above. […]

Test [5] concerns HT29 human colorectal carcinomas. As to the kind of experiment: Anti-tumor effects, HT29. Type of test: in vivo, Nu/nu mice. The conditions noted are these: large (1200 mm^3) tumors. How it is done: Anti-tumor effects were also observed in mice bearing HT29 human colorectal carcinomas. Nu/nu mice bearing large (1200 mm^3) tumors on their flanks were injected intravenously with tTF219 or PBS (control), and growth of the tumors was monitored each day for 10 days. The tumors in the tTF219 treated mice discontinued growth for about 7 days after treatment, whereas the tumors in mice treated with PBS continued to grow unchecked.

Test [6] deals with HT29 (human colorectal carcinoma) xenograft. As to the kind of experiment: HT29 xenograft necrosis after tTF constructs with Factor VIIa. Set-up: species or system BALB/c nu/nu mice. The conditions noted are these: mouse, in vivo, iv.

Consider `NC(=O)c1nnn(Cc2cc(Cl)c(C(=O)c3ccc(Cl)cc3)c(Cl)c2)c1N` [CAI, carboxyamidotriazole], for which the “patients with disease stabilization” value in [1] is 49%.

In the case of `Cc1ccc2c(=O)c3cccc(CC(=O)O)c3oc2c1C` [DMXAA], in the test with TNFα, the “fold less effective than endotoxin in inducing TNFα” value was 20 fold.

B1: Annexin V: binds to PS with high affinity (protein, UniProt P08758 2-320, looked up)
Annexin A5: AQVLRGTVTDFPGFDERADAETLRKAMKGLGTDEESILTLLTSRSNAQRQEISAAFKTLFGRDLLDDLKSELTGKFEKLIVALMKPSRLYDAYELKHALKGAGTNEKVLTEIIASRTPEELRAIKQVYEEEYGSSLEDDVVGDTSGYYQRMLVVLLQANRDPDAGIDEAQVEQDAQALFQAGELKWGTDEEKFITIFGTRSVSHLRKVFDKYMTISGFQIEETIDRETSGNLEQLLLAVVKSIRSIPAYLAETLYYAMKGAGTDDHTLIRVMVSRSEIDLFNIRKEFRKNFATSLYSMIKGDTSGDYKKALLLLCGEDD
On to B1, for which the “inhibition of factor Xa production” value in test [2] was 58%. Besides, the “effect of pre-treatment on coaguligand-induced anti-tumor effects” value in the test on L540 Hodgkin tumors (100 μg Annexin V 2 hours before 40 μg coaguligand) is on record as “completely abolished”. For the same molecule, the “effect on tumor morphology” value in the test with L540 Hodgkin tumors (100 μg Annexin V alone) is listed as “did not alter tumor morphology”.

B2: tTF219: residues 1-219 of TF plus an additional glycine at the N-terminus (protein)
chain: GSGTTNTVAAYNLTWKSTNFKTILEWEPKPVNQVYTVQISTKSGDWKSKCFYTTDTECDLTDEIVKDVKQTYLARVFSYPAGNVESTGSAGEPLYENSPEFTPYLETNLGQPTIQSFEQVGTKVNVTVEDERTLVRRNNTFLSLRDVFGKDLIYTLYYWKSSSSGKKTAKTNTNEFLIDVDKGENYCFSVQAVIPSRTVNRKSTDSPVECMGQEKGEFRE
With B2, the coagulation time turned out to be 60 s in the test on A20 lymphoma cells (10^−10 M tTF219, absence of Factor VIIa) and 20 s with A20 lymphoma cells (10^−10 M tTF219, presence of 13.5 nM Factor VIIa). Moreover, the entries for the “thrombosis of tumor vessels” value in [3] (24 hours after injection) and in test [4] were “practically all vessels in all regions of the tumor were thrombosed” and “virtually all vessels were thrombosed”, respectively. Also, the “effect on vessels in small tumors” value in [3] (small (<500 mm^3) C1300 and C1300 Muγ) is “largely unaffected”. In addition, the “tumor vessels thrombosed, average” value in the test with 3LL mouse lung carcinoma was determined as 62%. In addition, the “tumor size relative to mice receiving diluent alone” value in the test with C1300 Muγ tumors (16-20 μg i.v., repeated one week later, one week after the second treatment) came to 60%. For the same molecule, the “tumor size relative to controls receiving diluent alone” value in the test with C1300 Muγ tumors (treatment repeated 6 days later, fourteen days after the first injection) is reported as 75%. In test [5], the “time tumors discontinued growth after treatment” value was “about 7 days”. In test [6], the “necrosis, average area as percentage of total tumor area” value was “some necrosis”.
